Results as given in patent US5573928A, “Porcine vasoactive intestinal peptide receptor and DNA” (Eli Lilly and Company, priority 1993, dated 1996).
Where no end group is shown, it is not given here.

Target: T1, pVIP receptor (Sus scrofa, UniProt Q28992)
T1 sequence (Q28992 32-458): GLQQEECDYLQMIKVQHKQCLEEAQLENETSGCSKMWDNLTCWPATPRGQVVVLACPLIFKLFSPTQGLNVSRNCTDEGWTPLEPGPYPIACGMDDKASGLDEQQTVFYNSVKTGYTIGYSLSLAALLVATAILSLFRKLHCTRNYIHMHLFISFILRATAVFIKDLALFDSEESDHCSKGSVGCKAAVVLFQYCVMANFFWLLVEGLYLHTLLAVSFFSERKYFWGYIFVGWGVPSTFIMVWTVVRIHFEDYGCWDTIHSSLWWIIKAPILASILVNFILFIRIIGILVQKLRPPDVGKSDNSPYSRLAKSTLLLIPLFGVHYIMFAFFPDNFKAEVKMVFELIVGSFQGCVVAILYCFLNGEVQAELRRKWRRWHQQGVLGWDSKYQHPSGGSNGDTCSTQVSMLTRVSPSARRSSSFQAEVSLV
Test: cAMP assay in 293/VIPR cells expressing the pVIP receptor
Type: cell-based, porcine
Conditions: for intracellular [cAMP]: 293/VIPR cells, 45 min at 37° C.
Protocol: Briefly, a double stranded counterpart to Sequence ID#i, externally modified to incorporate convenient restriction sites, was integrated into the pRc/CMV vector and recombinantly expressed in 293 cells. The cDNA transcript included the signal peptide region of the native transcript facilitating proper orientation and integration into the transfected cell membrane. […] The cAMP level was also measured upon exposure of the transfected cells in response to the addition of secretin, and GHRH, two peptides closely related to VIP.
After removing the solution, 0.5 ml of 60% ethanol was added to lyse the cells in each well. An aliquot was taken, dried in vacUo, and the level of cAMP was determined.
Cells were washed twice with the incubation buffer (Dulbecco's modified Eagle's medium containing 0.5 mM 1-methyl-3-isobutylxanthine and 1 mg/ml BSA). […] After removing the buffer, 0.5 ml of 60% ethanol was added to lyse the cells in each well.

| intracellular [cAMP] (hormone concentration 10^-6 M) [pmoles/10^5 cells] | intracellular [cAMP] (hormone concentration 10^-7 M) [pmoles/10^5 cells] | intracellular [cAMP] (hormone concentration 10^-8 M) [pmoles/10^5 cells] | intracellular [cAMP] (hormone concentration 10^-9 M) [pmoles/10^5 cells] | intracellular [cAMP] (hormone concentration 10^-10 M) [pmoles/10^5 cells] | intracellular [cAMP] (hormone concentration 10^-11 M) [pmoles/10^5 cells] | Substance | intracellular cAMP levels upon exposure (in words) (transfected 293 cells expressing the protein of Sequence ID#2) |
| --- | --- | --- | --- | --- | --- | --- | --- |
| 440 | 240 | 185 | 28 | < 10 | < 10 | porcine secretin (HSDGTFTSELSRLRDSARLQRLLQGLV; ends and bridges not checked; UniProt P63298 33-59, looked up) [peptide hormone closely related to VIP, commercially available from Peninsula Laboratories] |  |
| 400 | 404 | 400 | 105 | < 10 | < 10 | GHRH: growth hormone-releasing hormone, a peptide closely related to VIP |  |

| Substance | intracellular [cAMP] (hormone concentration 10^-6 M) [pmoles/10^5 cells] | intracellular [cAMP] (hormone concentration 10^-7 M) [pmoles/10^5 cells] | intracellular [cAMP] (hormone concentration 10^-8 M) [pmoles/10^5 cells] | intracellular [cAMP] (hormone concentration 10^-9 M) [pmoles/10^5 cells] | intracellular [cAMP] (hormone concentration 10^-10 M) [pmoles/10^5 cells] | intracellular [cAMP] (hormone concentration 10^-11 M) [pmoles/10^5 cells] | intracellular cAMP levels upon exposure (in words) (transfected 293 cells expressing the protein of Sequence ID#2) |
| --- | --- | --- | --- | --- | --- | --- | --- |
| porcine vasoactive intestinal polypeptide [VIP] | 420 | 440 | 404 | 64 | 15 | < 10 | intracellular increase in cAMP levels |
